Consider seven molecules from paper doi:10.1101/2024.01.05.574302 (bioRxiv, 2024).

T1: gAnkB aa. 1477-1792 (human, UniProt Q01484 1477-1792)
T1 sequence (looked up): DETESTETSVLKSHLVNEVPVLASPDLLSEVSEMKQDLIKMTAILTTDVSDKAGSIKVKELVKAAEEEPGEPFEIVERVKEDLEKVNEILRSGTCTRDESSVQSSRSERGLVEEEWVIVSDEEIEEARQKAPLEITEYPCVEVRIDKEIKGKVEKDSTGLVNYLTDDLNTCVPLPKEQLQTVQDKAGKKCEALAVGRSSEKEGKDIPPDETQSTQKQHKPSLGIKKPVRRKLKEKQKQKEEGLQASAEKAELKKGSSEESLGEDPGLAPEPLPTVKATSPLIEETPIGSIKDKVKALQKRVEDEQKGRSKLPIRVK

B1: mouse ASAP2-SH3 (aa. 896-958) recombinant protein (domain or fragment, UniProt Q7SIG6 896-958, looked up)
chain: SKPKRVKALYNCVADNPDELTFSEGDVIIVDGEEDQEWWIGHIDGEPSRKGAFPVSFVHFIAD
B2: ASAP1 SH3 domain (aa. 1083-1147) (domain or fragment, mouse, UniProt Q9QWY8 1083-1147, looked up)
chain: GKNKVRRVKTIYDCQADNDDELTFIEGEVIIVTGEEDQEWWIGHIEGQPERKGVFPVSFVHILSD

In test [1] the target is B2. The test can be described thus: ITC.
A further test deals with T1, gAnkB aa. 1477-1792. Put plainly: ITC. (In ITC the heat of successive injections is recorded.)

By Kd is commonly meant the free concentration of one partner at which half of the binding sites on the other are occupied at equilibrium, for simple one-to-one binding. High values mean weaker binding, low ones tighter binding. In test [1], “Clasp1 (from UniProt Q7Z460 1-1538) (natural protein)” had a Kd of 8900 nM.
For the molecule B1, the Kd in the test with gAnkB aa. 1477-1792 was roughly 68 nM.
On to GIKKPVRRKLKE (peptide, UniProt Q01484 1699-1710, looked up) [gAnkB peptide (aa. 1699-1710)], for which, in test [1], the equilibrium dissociation constant (Kd) is roughly 140 nM.
As for GIKKGVRRKLKE (peptide, UniProt Q01484 1699-1710, looked up) [gAnkB peptide P1703G], the “fold decrease of affinity against the wild-type gAnkB peptide” value in test [1] was roughly 3 fold.
Consider GIKKPVERKLKE (peptide, UniProt Q01484 1699-1710, looked up) [gAnkB peptide R1705E], for which, in test [1], the “fold weakening of binding against the wild-type gAnkB peptide” value was roughly 125 fold.
On the same count and under the same terms, the same measure for GIKEPVRRKLKE (peptide, UniProt Q01484 1699-1710, looked up) [gAnkB peptide K1702E]: roughly 120 fold.
As to B2, the Kd with gAnkB aa. 1477-1792 is roughly 140 nM.
